Among the data in article doi:10.1101/2024.03.21.586151 are rate of FRET change after EGTA, fast phase (release of Ca^2+ from the N-domain) values, retold here.

For this test, the target named is CaM(C110)D with an IAEDANS probe coupled to position 110 (UniProt P0DP23). In words: FRET or BRET. (In general: In BRET a luciferase serves as donor, and the signal depends on an acceptor being close.)

For the substance “CKIIp with a C-terminal Gly-Cys extension labeled with DDPM (peptide)”, the rate of FRET change after EGTA, fast phase (release of Ca^2+ from the N-domain) was found to be 5.8 s⁻¹.
